Here are results for three substances from publication PMC5880808, “A lever-like transduction pathway for long-distance chemical- and mechano-gating of the mechanosensitive Piezo1 channel” (Nature Communications, 2018).

Holding throughout (assay): SEC; Superose-6 10/300 GL (FPLC) in 25 mM Na-PIPES pH 7.2, 140 mM NaCl, 2 mM DTT, 0.026% C12E10; oligomeric state judged from the peak position against wild-type mPiezo1
For test [1], the target named is mPiezo1-ΔL15-16 (657-677) (mouse) (UniProt E2JF22).
The target in the next test is mouse Piezo1 (mouse) (UniProt E2JF22). As to conditions: remark: other sources report otherwise.
The target in test [2] is mPiezo1-ΔL19-20 (870–921) (mouse) (UniProt E2JF22).

On to “mPiezo1-ΔL15-16 (657-677), E2JF22 1-656; E2JF22 678-2547”, for which the stoichiometry N (in general, the number of molecules, sites or subunits per partner or assembly) in test [1] worked out at 3.
Take mouse Piezo1, E2JF22 1-2547: the stoichiometry N in the test with mouse Piezo1 (mouse) turned out to be 3.
For “mPiezo1-ΔL19-20 (870–921), E2JF22 1-869; E2JF22 922-2547”, the stoichiometry N in test [2] stood at 3.
